# Reference: patent publication US20240116999A1, “CONFORMATIONALLY CONSTRAINED GLUCAGON ANALOGUES AND THEIR USE IN GLUCAGON-SINGLE CHAIN INSULIN FUSION PROTEINS” (THE TRUSTEES OF INDIANA UNIVERSITY, priority 2021, published 2024)
# Biological target: glucagon receptor (GCGR)
# Assay: cell-based or functional assay
substance,measurement,value
dasiglucagon (Zealand Pharma) (peptide),"EC50, cell-based cyclic AMP (cAMP) activity assay",1.04 nM
